This note sets out measurements from patent publication US20200048328A1 (Bristol-Myers Squibb, published 2020).

For orientation: koff means a measure of how fast the partners let go of each other. A high value points to a short-lived complex. The term Kd denotes the free concentration of one partner at which half of the binding sites on the other are occupied at equilibrium, for simple one-to-one binding. A word on the kon: it is a measure of how fast the partners come together. Low readings indicate slow association, high ones fast association.

One assay addresses T1, human PCSK9 (human, UniProt Q8NBP7 31-692).
T1 construct: also called hPCSK9; huPCSK9
In words: SPR, dual injection on immobilized albumin. (In general: In SPR one partner is held on a chip, and binding of the other changes the refractive index at the surface.)

Assay [1] concerns the target T2, mouse serum albumin (mouse, UniProt P07724 25-608).
T2 construct: also called MSA; MuSA
In words: SPR, albumin immobilized, Adnectin 250 nM.

Assay [2] addresses T3, rat serum albumin (rat, UniProt P02770 25-608).
T3 construct: also called Rat SA; RSA
In words: SPR, albumin immobilized, Adnectin 250 nM.

Assay [3] concerns the target T4, human serum albumin (human, UniProt P02768 25-609).
T4 construct: immobilized on chips or coated on plates elsewhere; also called HSA; HuSA
In words: SPR, albumin immobilized, Adnectin 250 nM.

Assay [4] has as its target T5, rhesus serum albumin (rhesus, UniProt Q28522 17-600).
T5 construct: also called RhSA; Rh-SA
The experiment in a line: SPR, albumin immobilized, Adnectin 250 nM.

Assay [5] has as its target T2, mouse serum albumin. In words: SPR, albumin immobilized, acetate pH 5.5.
For assay [6], the target named is T4, human serum albumin. In words: SPR, albumin immobilized, acetate pH 5.5.
Assay [7] addresses T5, rhesus serum albumin. In words: SPR, albumin immobilized, acetate pH 5.5.
Assay [8] addresses T3, rat serum albumin. In words: SPR, albumin immobilized.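 Further: biacore CM5 surface plasmon resonance with serum albumin coupled to the chip, 3 min association then 6-10 min dissociation, rates from a 1:1 model fit.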
Description: To determine the kinetics of binding to human, rhesus, and mouse serum albumin, as well as whether binding was retained at both physiological and endosomal pHs, the respective serum albumins were immobilized on a Biacore CMS chip to a surface density of ˜1200 RU using standard NHS/EDC coupling. […] Kinetic measurements were carried out using a 3 min association and 6-10 min dissociation phase. Kinetic traces of reference-subtracted sensorgrams were fit to a 1:1 binding model using the Biaevaluation software.
In addition, binding to albumin was carried out under various pH conditions ranging from pH 5.5 to pH 7.4.

T3 sequence (P02770 25-608 limits assumed): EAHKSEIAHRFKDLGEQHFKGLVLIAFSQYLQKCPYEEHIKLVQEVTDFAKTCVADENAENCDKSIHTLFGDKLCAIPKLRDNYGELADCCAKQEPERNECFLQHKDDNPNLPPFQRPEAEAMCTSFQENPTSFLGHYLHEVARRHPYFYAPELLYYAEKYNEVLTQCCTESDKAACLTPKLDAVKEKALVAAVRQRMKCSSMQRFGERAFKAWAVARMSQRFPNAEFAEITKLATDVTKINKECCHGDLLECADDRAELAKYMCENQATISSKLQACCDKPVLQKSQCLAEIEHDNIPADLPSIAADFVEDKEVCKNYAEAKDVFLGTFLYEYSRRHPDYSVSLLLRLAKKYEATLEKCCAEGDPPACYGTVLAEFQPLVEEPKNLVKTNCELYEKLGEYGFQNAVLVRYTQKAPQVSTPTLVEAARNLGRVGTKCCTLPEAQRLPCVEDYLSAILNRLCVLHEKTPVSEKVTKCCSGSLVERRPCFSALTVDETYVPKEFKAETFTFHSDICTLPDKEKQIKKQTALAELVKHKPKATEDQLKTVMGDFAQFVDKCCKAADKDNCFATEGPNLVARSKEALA
T5 sequence (Q28522 17-600 limits assumed): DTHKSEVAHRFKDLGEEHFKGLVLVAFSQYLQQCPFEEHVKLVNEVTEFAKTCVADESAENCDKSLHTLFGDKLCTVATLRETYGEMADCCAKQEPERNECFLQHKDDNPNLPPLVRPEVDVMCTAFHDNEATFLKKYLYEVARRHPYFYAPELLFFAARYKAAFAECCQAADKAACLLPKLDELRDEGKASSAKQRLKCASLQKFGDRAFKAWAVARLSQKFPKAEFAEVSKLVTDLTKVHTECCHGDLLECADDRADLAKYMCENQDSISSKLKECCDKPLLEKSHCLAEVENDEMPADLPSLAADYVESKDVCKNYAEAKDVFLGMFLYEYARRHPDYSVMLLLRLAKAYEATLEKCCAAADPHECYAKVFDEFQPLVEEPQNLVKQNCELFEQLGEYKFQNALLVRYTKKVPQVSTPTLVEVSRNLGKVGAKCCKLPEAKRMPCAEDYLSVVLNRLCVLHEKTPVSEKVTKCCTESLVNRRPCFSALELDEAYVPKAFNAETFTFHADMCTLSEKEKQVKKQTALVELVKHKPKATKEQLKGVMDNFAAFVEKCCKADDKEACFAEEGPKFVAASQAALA
T2 sequence (P07724 25-608 limits assumed): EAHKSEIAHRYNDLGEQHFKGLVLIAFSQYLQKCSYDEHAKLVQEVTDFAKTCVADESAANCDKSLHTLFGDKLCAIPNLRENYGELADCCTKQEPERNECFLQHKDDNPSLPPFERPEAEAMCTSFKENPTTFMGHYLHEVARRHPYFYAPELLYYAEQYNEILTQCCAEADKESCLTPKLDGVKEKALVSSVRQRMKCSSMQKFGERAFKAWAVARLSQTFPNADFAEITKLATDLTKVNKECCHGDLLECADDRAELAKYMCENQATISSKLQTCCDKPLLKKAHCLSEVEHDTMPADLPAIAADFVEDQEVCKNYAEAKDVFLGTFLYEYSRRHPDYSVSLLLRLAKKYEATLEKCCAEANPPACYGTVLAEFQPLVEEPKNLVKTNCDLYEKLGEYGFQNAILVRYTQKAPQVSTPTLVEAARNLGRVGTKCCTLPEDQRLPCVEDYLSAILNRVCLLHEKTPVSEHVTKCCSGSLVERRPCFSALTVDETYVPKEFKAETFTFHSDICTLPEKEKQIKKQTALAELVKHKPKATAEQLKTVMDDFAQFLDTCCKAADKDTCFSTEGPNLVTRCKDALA

B1: PKE2 Adnectin 2629_E06 (designed binder)
chain: MGVSDVPRDLEVVAATPTSLLISWDAPAVTVRYYRITYGREVQKYSDLGPLYIYQEFTVPGSKSTATISGLKPGVDYTITVYAVTGSGESPASSKPISINYRTEIDKPSQHHHHHH
notes: 10Fn3 domain with modified CD loop; the entry includes the His6 tail; also called ADX_2629_E06
Take B1: the binding result with human PCSK9 is given as “no binding”. The dissociation rate constant (koff) worked out at 0.000401 s⁻¹ in the assay with mouse serum albumin [1]; 0.000767 s⁻¹ with rat serum albumin [2]; 0.000169 s⁻¹ with human serum albumin [3]; 0.000219 s⁻¹ with rhesus serum albumin [4]; 0.00125 s⁻¹ with mouse serum albumin [5]; 0.000326 s⁻¹ in the assay with human serum albumin [6]. In addition, the koff stood at 0.000584 s⁻¹ with rhesus serum albumin [7] and 0.00126 s⁻¹ with rat serum albumin [8]. Also, the Kd in the assay with mouse serum albumin [5] was 0.0149 µM; in the assay with human serum albumin [6], 0.00464 µM; with rhesus serum albumin [7], 0.012 µM; in the assay with rat serum albumin [8], 0.0128 µM. Further, the kon in the assay with mouse serum albumin [5] was found to be 84000 M⁻¹ s⁻¹; in the assay with human serum albumin [6], 70400 M⁻¹ s⁻¹; with rhesus serum albumin [7] it was 48500 M⁻¹ s⁻¹; in the assay with rat serum albumin [8], 99700 M⁻¹ s⁻¹.
